The results in this text go back to the DeepSol protein solubility set.

This data set in a line: soluble on expression in E. coli; label from the status in PepcDB or PDB records.
For the sequence “MGSDKIHHHHHHVDIQALKKVSELDVFSLLVFKLIYETGFANFAAKELAVSAPKISRCLTSLRAIFNDELFFRRQQGLKPTPLAERLYQPVCQLCDMVSQIERVADDRLNHHQTPILHIAVSPSIITSVAIALSKLPRDVIGKVKLHSWQADTEELIYNGELDFGIGFETQDTHGLEAYPIANVTSLCVVGNTNHLFWAGAEQIKLEDIIQHPIVYLRCKGFNNRIDPLELYCQTHGLLLEDIECARKLEDWYWHILTMDSLAITICNEGSFAQQIPQLRVERLPQSEFTKLNSVMAMPSYCLIERAEHYRRYSLNVKEMIIDIIKSLLV”, the “soluble on expression in E. coli” value is “not soluble”.
Consider “MGHHHHHHSHMCNGSFTEKLKLLFKLHIPPAYTEVKSKDASKGDELSKEELLYFSQLHVSKPANEKEAESAKHSPEKGKGKIDIQAYLSQWQDELFKKEENIKDLPRMNQSQFIQFSKTLYNLFHEDPEEESLYQAIAVVTSLLLRMEEVGRKLHSPTSSAKGFSGTVCGSGGPSEEKTGSHLEKDPCSFREEPQWSFAFEQILASLLNEPALVRFFEKPIDVKAKLENARISQLRSRTKM”, for which the “soluble on expression in E. coli” value was “soluble”.
With “MAHHHHHHMIGELVLLIGDFHSPMRNLGLPDCFKDLLKTDKIKHVLCTGNVGCRENLELLKNIADSVHITKGDMDDEYDFPEDTSLTIGDFKISLIHGHQIIPWGDTNALLQWQKKYDSDIVISGHTHKNSIVRYEGKYFINPGSATGAFQPWLSQPTPSFILMAVAKSSIVVYVYEEKNGKTNVEMSEL”, the “soluble on expression in E. coli” value is “soluble”.
As to “MSLGPTRANPKAVKPFIEQKEKKMVLVVDWHTKTLAATMNGRRPQDEDAMVVHGPLKNFPNARLKAIFDGHGGYSVSRRCASVAYGYLGAMKNLSQESFRSACLQMDADMRADTLKGGSTGLMVIIEKVDDPESRDGIYFNVHAANVGDSRGLILHSDGTYTIMSKDHKPTAEVERERIKRAGGFLLRRLGVWRVDGRLALSRAFGDFALKDRLDMKPNEQKVVALPDVNVFKAKPGDIILMGCDELANTLKNIQWDGGTVCSRRPRGRRSRDNVSIMLTKLVKRPIRNTQVKRFDYSFTGERYVLPSEEGHHHHHH”, the “soluble on expression in E. coli” value is reported as “not soluble”.
Turning to “MGSDKIHHHHHHMRESVVKLNEYTLRIFSLNTIVVGSGAAGLNAVDRVFSFGQKDVALLTDNLKWGTSRNTGSDKQTYYKLTLAGNVPDSVYELAETLFNGGSMDGDIALVEAALSARAFFRLVELGVPFPHSRYGEYVGYKTDHDPKQRATSAGPLTSYYMCEKLLEEIRRKGIKIFEGYQVIGILTDRNEEKTIGLIALDLNNIDDPEKRYVLFNVKNIIYATGGPAGMFYFHSVYPPVHFGATGIAFEAGVMGKNLTEWQFGIASKKFRWNLSGTYQQVIPRYVSTDENGNDEREFLEEYFPDPSTMLNAIFLKGYQWPFDVRKIKNYGSSLIDILVFYETVIKGRRVWLDFTRNPSWGSKNGELDFSLLGKEAYEYLKNSGALFGRPIDRLEKMNRPAIEVYLQHGIDLRKEYLEIGVCAQHNNGGLHGNIWWESNLKHFFPVGEVNGSHGVYRPGGSALNSGQVGGVRAAQYIVENYSGDPLCEEEILEEAKDQILKKIELGESFVKKITGKSNVSSILKEISERSMRSMGIVRSLEEAGKGKNEALRDFNNLIEKVELSSIRQLPFAFRLYDVLLTQYVYLSAVENYIESGGKSRGSYIVHDPTGELPVPNLPEMFRYSLAGESFNKKIQRVRCKENRCEFFWDPVKEIPREDTWFETIWNSFMRREVFR”, the “soluble on expression in E. coli” value is “not soluble”.
For “MSLKISSMFTPIRIGSMTVPNRFVVPPMGNNFANTDGTLSETSKAYYLERALGGFGLITIESSVVDKKAKGGPRKPCLYDDSTIDSFKNVIDACHDAGSKVSIQLQHAGSEGNEKVAGHPLKAASAIPASNGRNTPLAITTEEIYELIESYGDAALRAQKAGADAVEVHCAHGYLVSSFISQRTNKRVDEFGGCFENRMRLPRLIIENIRKKVGNSLAILCRINSTDDVPGGIDVHDSSVIAAYLEDCGIDGLHVSRSIHIHDEYMWAPTTLHAGFSAELVTEIKKAVSIPVITVGRYTEPQFAELMVRQGRCDLVAFGRQSLADPEMPNKAKNGKLDEMIPCIACLQGCVPNMFQGKPIACLANPILGHEAELKPAEISKEVLVVGGGVGGMLAAWVCAKRGHNVTLVEKSEVLGGQMRLAAYPPGKGDITNLVRSYISKCNQYGVKICTNTEATVELIKEKSPDVVIIATGATPLVLPIPGINDSGLIHAVDLLDGKKSCGKKVLVVGGGMVGCEVAAFLGEQEHEVTVIELREEVGADVISEHRKFLMNDFENYNIHTITGAKVSKFYDDGVDYLLTDGTEHDLKGFDSVVLAMGSRNYDPLSEVIKEVVKETYIVGDAVKARRALDATKEAFEVALNIEGHHHHHH”, the “soluble on expression in E. coli” value was “soluble”.
The same measure for “SNAMLHYVHVGNKKSPNTLLFVHGSGCNLKIFGELEKYLEDYNCILLDLKGHGESKGQCPSTVYGYIDNVANFITNSEVTKHQKNITLIGYSMGGAIVLGVALKKLPNVRKVVSLSGGARFDKLDKDFMEKIYHNQLDNNYLLECIGGIDNPLSEKYFETLEKDPDIMINDLIACKLIDLVDNLKNIDIPVKAIVAKDELLTLVEYSEIIKKEVENSELKIFETGKHFLLVVNAKGVAEEIKNFI”: “soluble”; for “MPNTLKRLIPDPEVIKLQQLLSSNGYFEEIKPSHGLFDGITFDNAVLFQLQHIYKDGDPLKPDGVIGAKTWWALKNPSGEKQRNHLSASIPAGLTTKRHQLIELIIEEHSKPVFEVPDGSNRSPDIDGYWGNTGVIGLAWCCAFVSWVLKEVTDSYPIASTHHLGVQRMWRTAKRLNMTTEIPKPGDIFVQLFAGGKGHTGFVVAVTEDGETIYTCEGNCGNRLKIGKRSNNSELHFIDCLQDNQTLDFERMAFDVNSTIDNTTRLEHHHHHH”: “not soluble”; for “MRILGEKVRQFRKRKGMSQKELADGICTQATISLIEKKSKIPSMKIMMKICNRLGIRLSEVIIENDDQLYRTFKKIDTLIRHTQLEEAQDVFQHIRPKQLRSNTDKKQYYYYEGYLQLVLNDNADEAIFNFGMLLNQFVKSSHDMFAILATLGTGLAYERKQAYDKAEIFVKQAVATLHTMDAQAMPMGDDDYLQNEILIYASAAQLYAKINFPEEALELIDLALKKAQESQSLYLLDRLYAQKAANEVVLNNVQSAHDHYYVAYALSLVTHNSSLTEKITKEMAEYHIAPLQVANDA”: “not soluble”.
“MNSITVRNATFTWARSDPPTLNGITFSIPEGALVAVVGQVGCGKSSLLSALLAEMDKVEGHVAIKGSVAYVPQQAWIQNDSLRENILFGCQLEEPYYRSVIQACALLPDLEILPSGDRTEIGEKGVNLSGGQKQRVSLARAVYSNADIYLFDDPLSAVDAHVGKHIFENVIGPKGMLKNKTRILVTHSMSYLPQVDVIIVMSGGKISEMGSYQELLARDGAFAEFLRTYASHHHHHH”: the “soluble on expression in E. coli” value is given as “soluble”.
As for “MDISSTEIWDAIRRNSYLLYYQPKVDAKTNKIIGFEGLVRLKTATTILAPIDFFDDIVLLNATREMQDFVAETAIKQINQLGGRFSISINIPAHYVASSTYMTFLHDYVKEHLKYPECLEIEIIERGEITELAIADKNLRKIKDLGVKVSMDDFGKGYSSLAYLRSLPIDIVKTDMSFIALLKTDRKQQIIIRAIVNLCHDLGGKVVTEGVEDMEQVEKLREMKVDYFQGYYFSRPLPMEEIKQKYSIV”, the “soluble on expression in E. coli” value is recorded as “soluble”.
As to “MCLGVPAQIAEIHDSTRATVSMSGVSRMVSTDLLAETIDVGDWVLIHVGFALSKIDEDEAAVTLQQIKQLGGFDEELQSFESSEI”, the “soluble on expression in E. coli” value is on record as “not soluble”.
The same measure for “MGSDKIHHHHHHMRKLISIILLLLTININSQIVELRPVKVPAEHAEYFETIHTEYSIKTAQDAKDKGKLYGWWVAKRLNTNEDDFNYLFITVHPSVESLIDNEYWWQNSEEVTGYKPEILYKMADLFEFDKQYIYQVEMQIPDAAEAKYIIINFATPDDLNTVLKESKEIVMPHFQKNLIKSGMVGWGVATKITPQGSNYSSFSTWDSYDSLENMMKHLGGGAAIEGLPLNKLTPIEWSMRPIFRVITGTK”: “not soluble”.
“MVYVAVLANIAGNFPALTAALEKIEELKEEGYEIEKYYILGNIVGLFPYPREVIEAIKNLAKTSNVKVIRGKYDQLIAMSDPHAGDPKYIDKLEIPDHLKATLKYTWEKLGHEGREYLRDLPIYLVDKIGKNEIFGVYGSPVNPFDGEILPDQPTSYYEAIMRPVKEYEMLLVASPRYPLDAMTMYGRVVCPGSIGFPPAREHKATFALVDAETLKVKFIEVEYDKKIIEDRIKLEKLPEEVIKILYHGGKA”: the “soluble on expression in E. coli” value is listed as “soluble”.
Take “MSLGTVHARSLDPLPMQGPELGVQADDMDLGEPEREEKQEVLENKDVVVQHVHIDGLGRTKEDILTYEIADVFHAKNLIDVMKKSHEARQKLLRLGIFRHVEVVIDTAEGADALPNGLDVTFEVRELRRMTGSYNTMVGNNEGSMVLGIKLPNVLGRAEKLTFQFSYGTKETSYGLSFFKPQPGHFERNFSLNLYKVTGQFPWSSLRETDRGVSAEISFPIWRTSHTLKWEGVWRELGCLARTASFAVREESGHSLKSSLAHAMVIDTRNSTILPRKGALLKINQELAGYTGGDVSFLKEDFEIQLNKTLFWDSVLSTSLWGGMLLPLGEKASSIADRFYLGGPTSVRGFSMYSIGPQSEGDYLGGEAYWAGGVHLYTPLPFRPGRGGFGDLFRTHFFLNAGNLCNLNYGEGPRAHLSKLAECIRWSYGAGIVLRLGNIARLELNYCIPMGVQSGDRICDGVQFGAGIRFLEGHHHHHH”: the “soluble on expression in E. coli” value was “not soluble”.
Then “MTDETENVPKTEQEVPNDPESEKEVKEDAKEEVKDLIPEFYSQHGGDPRLIDIAASVWLSGIPTDFITDTYEQFCETIKNIMKMGHKLDVSTVSKIVRIPNLDSNAKNSEHALRALICFSDKKHIYRMMTREAEFAKEEMKVELIEELPSDALEISEDDKCLLLNGLVEAEDAGDDVDVGGGDDDEIDELMDHDDEGGHDEHEEDEESDVKKEEEKGSEKKEKKPEPPKKKVYEDEDEKAPFEMYWDGAPEFQWRLCEGPRDEKKLIIDNLLWADLNNVFIYRTIQKSTTCEINFPTRFNSDGNRTCHGKLTLFFPGNVAIMDEALKHLVYFRSGDGRRIKVFLPQTTVSLKRKEEFEGKLGRVIKPTERMMQLIVKILPDGYTPTLDEACAWFPLQAVIQCDLVNDEMGNPCAVVKFETAEEAVAAHAGKSFVTIVQKSMITVKDSEGNEKEEEKETETHCNVFMRGGIIMGF”, with “not soluble”; and “MAHHHHHHMRNVLFNGPMIPEIDAGYNVQVNGVSVNFLKDPFCFRNVVIENAYYKNKLLYKNFNDDNVNKNITNHIKRENIVELDKEFNECIKDSLNNNHVHIKKNEPDYKLNDIKSPIYKERTKYTPKIIEVIKTNYNVPHDERVKIHKENLMYMNNIEYKKANEIVEKVILTIKNETIQKPVELANDEPNNILKPNNIFKKMLL”, with “not soluble”.
Turning to “MAREKVSLTEFNLFSEGILEQGSSVRALEWAPIVPFADRAGFEQESRKALKKDFAIIELLANGNTIPAQSRTQYAPLYYIYPQYNNQEALGLDVYSNPTHILSMQVVVNSKAVIASAPITLVQDELAKPGMLFSKAVFLPPEVNELASNEAQQKLSIIKEGKLLGFVVAVAQFDSFFEQLAQQKEQEVSFFIQDVSGSQPLSLFGQAFPTVNRHVDTITIEVFSRLWQIDIALEHHHHHH”, the “soluble on expression in E. coli” value is given as “not soluble”.
